This note sets out measurements from IntAct's records for PubMed 31515488.

To fix the notation:
B1: U3 small nucleolar RNA-associated protein 14 homolog C (Homo sapiens), Q5TAP6 (parent)
chain: MNVNQVAENLALSHQEELVDLPKNYPLSENEDEGDSDGERKHQKLLEAIISLDGKNRRKLAERSEASLKVSEFSVSSEGSGEKLGLADLLEPVKTSSSLATVKKQLNRVKSKKVVELPLNKEKIEQIHREVAFSKTSQVLSKWDPIILKNQQAEQLVFPLGKEQPAIAPIEHALSGWKARTPLEQEIFNLLHKNKQPVTDPLLTPMEKASLQAMSLEEAKMHRAELQRARALQSYYEAKARKEKKIKSKKYHKVVKKGKAKKALKEFEQLQKVNPTVALEEMEKIENARMMERMSLKHQNSGKWAKSKAIMAKYDLEARQAMQEQLAKNKELTQKLQVASESEEEEGGTEVEELLVPHVANEVQMNVDGPNPWMFRSCTSDTKEAATQEDPEQVPELAAHEVSASEAEERPVAEEEILLREFEERQSLRKRSELNQDAEPASSQETKDSSSQEVLSELRALSQKLKEKHQSRKQKASSEGTVPQVQREEPAPEEAEPLLLQRSERVQTLEELEELGKEDCFQNKELPRPVLEGQQSERTPNNRPDAPKEKKEKEQLINLQNFLTTQSPSVRSLAVPTIIEELEDEEERDQRQMIKEAFAGDDVIRDFLKEKREAVEASKPKDVDLTLPGWGEWGGVGLKPSAKKRRQFLIKAPEGPPRKDKNLPNVIISEKRNIHAAAHQVQVLPYPFTHHRQFERTIQTPIGSTWNTQRAFQKLTTPKVVTKPGHIIKPIKAEDVGYQSSSRSDLPVIQRNPKRITTRHNKEEKL
B2: Protein FAM168A (Homo sapiens), Q92567 (parent)
chain: MNPVYSPVQPGAPYGNPKNMAYTGYPTAYPAAAPAYNPSLYPTNSPSYAPEFQFLHSAYATLLMKQAWPQNSSSCGTEGTFHLPVDTGTENRTYQASSAAFRYTAGTPYKVPPTQSNTAPPPYSPSPNPYQTAMYPIRSAYPQQNLYAQGAYYTQPVYAAQPHVIHHTTVVQPNSIPSAIYPAPVAAPRTNGVAMGMVAGTTMAMSAGTLLTTPQHTAIGAHPVSMPTYRAQGTPAYSYVPPHW
partner: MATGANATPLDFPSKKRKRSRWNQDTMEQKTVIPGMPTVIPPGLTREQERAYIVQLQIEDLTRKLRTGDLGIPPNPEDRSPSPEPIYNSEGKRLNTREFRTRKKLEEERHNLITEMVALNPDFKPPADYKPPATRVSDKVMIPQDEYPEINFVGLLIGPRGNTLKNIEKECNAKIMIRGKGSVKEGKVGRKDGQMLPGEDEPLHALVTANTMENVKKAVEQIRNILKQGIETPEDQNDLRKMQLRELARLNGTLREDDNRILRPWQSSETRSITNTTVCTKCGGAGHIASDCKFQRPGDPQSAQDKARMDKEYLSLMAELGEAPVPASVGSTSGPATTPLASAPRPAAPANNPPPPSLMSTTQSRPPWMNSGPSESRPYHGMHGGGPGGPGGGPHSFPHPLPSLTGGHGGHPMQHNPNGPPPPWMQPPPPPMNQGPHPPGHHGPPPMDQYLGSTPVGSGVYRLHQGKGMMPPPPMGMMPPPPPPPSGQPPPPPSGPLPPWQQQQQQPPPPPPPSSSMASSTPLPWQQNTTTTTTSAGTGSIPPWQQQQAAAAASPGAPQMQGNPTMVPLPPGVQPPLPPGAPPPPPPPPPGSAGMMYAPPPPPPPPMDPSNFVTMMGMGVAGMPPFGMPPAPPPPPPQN
B3: Protein LDOC1 (Homo sapiens), O95751 (parent)
chain: MVDELVLLLHALLMRHRALSIENSQLMEQLRLLVCERASLLRQVRPPSCPVPFPETFNGESSRLPEFIVQTASYMLVNENRFCNDAMKVAFLISLLTGEAEEWVVPYIEMDSPILGDYRAFLDEMKQCFGWDDDEDDDDEEEEDDY
partner: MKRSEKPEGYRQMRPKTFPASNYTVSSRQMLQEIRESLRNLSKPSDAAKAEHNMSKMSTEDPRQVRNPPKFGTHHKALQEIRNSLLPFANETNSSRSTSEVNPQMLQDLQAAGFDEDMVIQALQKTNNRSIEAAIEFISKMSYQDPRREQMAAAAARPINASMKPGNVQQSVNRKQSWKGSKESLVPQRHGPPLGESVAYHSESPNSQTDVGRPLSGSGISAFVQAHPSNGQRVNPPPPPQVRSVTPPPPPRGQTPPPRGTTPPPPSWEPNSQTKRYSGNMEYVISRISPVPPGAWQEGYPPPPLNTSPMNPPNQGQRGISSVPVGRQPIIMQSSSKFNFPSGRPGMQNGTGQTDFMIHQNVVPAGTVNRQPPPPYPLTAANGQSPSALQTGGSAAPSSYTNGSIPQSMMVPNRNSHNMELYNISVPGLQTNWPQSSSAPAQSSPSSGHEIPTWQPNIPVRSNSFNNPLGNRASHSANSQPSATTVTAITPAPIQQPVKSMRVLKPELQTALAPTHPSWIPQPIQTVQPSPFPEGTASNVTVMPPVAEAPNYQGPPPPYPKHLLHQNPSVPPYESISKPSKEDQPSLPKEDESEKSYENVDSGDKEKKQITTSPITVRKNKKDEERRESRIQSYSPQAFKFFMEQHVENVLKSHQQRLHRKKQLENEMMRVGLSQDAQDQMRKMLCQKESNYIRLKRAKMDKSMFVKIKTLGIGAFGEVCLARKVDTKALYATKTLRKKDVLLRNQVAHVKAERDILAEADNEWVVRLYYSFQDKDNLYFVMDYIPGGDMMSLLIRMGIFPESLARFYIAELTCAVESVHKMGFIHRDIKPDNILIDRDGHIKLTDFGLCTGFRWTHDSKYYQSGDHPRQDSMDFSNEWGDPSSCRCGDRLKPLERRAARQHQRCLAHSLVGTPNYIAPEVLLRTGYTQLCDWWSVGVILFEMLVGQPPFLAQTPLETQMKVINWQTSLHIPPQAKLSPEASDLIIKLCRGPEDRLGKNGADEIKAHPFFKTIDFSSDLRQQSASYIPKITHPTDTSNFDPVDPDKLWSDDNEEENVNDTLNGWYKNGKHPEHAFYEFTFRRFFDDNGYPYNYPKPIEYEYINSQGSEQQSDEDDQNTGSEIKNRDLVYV
B4: Transcription factor 19 (Homo sapiens), Q9Y242 (parent)
chain: MLPCFQLLRIGGGRGGDLYTFHPPAGAGCTYRLGHRADLCDVALRPQQEPGLISGIHAELHAEPRGDDWRVSLEDHSSQGTLVNNVRLPRGHRLELSDGDLLTFGPEGPPGTSPSEFYFMFQQVRVKPQDFAAITIPRSRGEARVGAGFRPMLPSQGAPQRPLSTFSPAPKATLILNSIGSLSKLRPQPLTFSPSWGGPKSLPVPAPPGEMGTTPSAPPQRNRRKSVHRVLAELDDESEPPENPPPVLMEPRKKLRVDKAPLTPTGNRRGRPRKYPVSAPMAPPAVGGGEPCAAPCCCLPQEETVAWVQCDGCDVWFHVACVGCSIQAAREADFRCPGCRAGIQT
partner: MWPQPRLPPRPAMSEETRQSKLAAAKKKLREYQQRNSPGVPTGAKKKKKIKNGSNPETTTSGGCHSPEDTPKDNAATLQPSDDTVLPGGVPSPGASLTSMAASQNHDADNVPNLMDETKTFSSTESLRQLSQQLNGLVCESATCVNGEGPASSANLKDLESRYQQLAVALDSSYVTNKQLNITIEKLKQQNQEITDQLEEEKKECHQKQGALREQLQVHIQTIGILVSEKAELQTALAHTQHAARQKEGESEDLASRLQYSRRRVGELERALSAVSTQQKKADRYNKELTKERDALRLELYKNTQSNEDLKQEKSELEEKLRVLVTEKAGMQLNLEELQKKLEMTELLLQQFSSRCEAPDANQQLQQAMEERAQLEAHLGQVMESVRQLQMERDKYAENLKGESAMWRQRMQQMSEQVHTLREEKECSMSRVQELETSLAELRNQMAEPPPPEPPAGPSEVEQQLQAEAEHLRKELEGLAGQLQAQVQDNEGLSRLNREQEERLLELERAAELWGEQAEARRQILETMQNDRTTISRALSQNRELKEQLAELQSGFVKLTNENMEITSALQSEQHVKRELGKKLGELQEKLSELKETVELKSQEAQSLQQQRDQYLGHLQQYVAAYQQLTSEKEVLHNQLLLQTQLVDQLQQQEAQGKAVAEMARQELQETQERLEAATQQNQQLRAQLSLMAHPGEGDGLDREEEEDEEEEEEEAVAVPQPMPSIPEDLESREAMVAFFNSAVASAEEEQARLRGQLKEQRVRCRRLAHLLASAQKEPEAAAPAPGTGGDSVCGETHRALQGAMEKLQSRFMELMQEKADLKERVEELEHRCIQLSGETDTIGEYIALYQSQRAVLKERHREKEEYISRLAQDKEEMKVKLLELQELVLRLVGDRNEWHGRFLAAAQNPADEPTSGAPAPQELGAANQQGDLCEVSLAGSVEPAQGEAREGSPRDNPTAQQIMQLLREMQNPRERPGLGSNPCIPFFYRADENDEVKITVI
B5: Tuftelin-interacting protein 11 (Homo sapiens), Q9UBB9 (parent)
chain: MSLSHLYRDGEGRIDDDDDERENFEITDWDLQNEFNPNRQRHWQTKEEATYGVWAERDSDDERPSFGGKRARDYSAPVNFISAGLKKGAAEEAELEDSDDEEKPVKQDDFPKDFGPRKLKTGGNFKPSQKGFAGGTKSFMDFGSWERHTKGIGQKLLQKMGYVPGRGLGKNAQGIINPIEAKQRKGKGAVGAYGSERTTQSMQDFPVVDSEEEAEEEFQKELSQWRKDPSGSKKKPKYSYKTVEELKAKGRISKKLTAPQKELSQVKVIDMTGREQKVYYSYSQISHKHNVPDDGLPLQSQQLPQSGKEAKAPGFALPELEHNLQLLIDLTEQEIIQNDRQLQYERDMVVNLFHELEKMTEVLDHEERVISNLSKVLEMVEECERRMQPDCSNPLTLDECARIFETLQDKYYEEYRMSDRVDLAVAIVYPLMKEYFKEWDPLKDCTYGTEIISKWKSLLENDQLLSHGGQDLSADAFHRLIWEVWMPFVRNIVTQWQPRNCDPMVDFLDSWVHIIPVWILDNILDQLIFPKLQKEVENWNPLTDTVPIHSWIHPWLPLMQARLEPLYSPIRSKLSSALQKWHPSDSSAKLILQPWKDVFTPGSWEAFMVKNIVPKLGMCLGELVINPHQQHMDAFYWVIDWEGMISVSSLVGLLEKHFFPKWLQVLCSWLSNSPNYEEITKWYLGWKSMFSDQVLAHPSVKDKFNEALDIMNRAVSSNVGAYMQPGARENIAYLTHTERRKDFQYEAMQERREAENMAQRGIGVAASSVPMNFKDLIETKAEEHNIVFMPVIGKRHEGKQLYTFGRIVIYIDRGVVFVQGEKTWVPTSLQSLIDMAK
partner: B3 partner
B6: Macrophage scavenger receptor types I and II (Homo sapiens), P21757 (parent)
chain: MEQWDHFHNQQEDTDSCSESVKFDARSMTALLPPNPKNSPSLQEKLKSFKAALIALYLLVFAVLIPLIGIVAAQLLKWETKNCSVSSTNANDITQSLTGKGNDSEEEMRFQEVFMEHMSNMEKRIQHILDMEANLMDTEHFQNFSMTTDQRFNDILLQLSTLFSSVQGHGNAIDEISKSLISLNTTLLDLQLNIENLNGKIQENTFKQQEEISKLEERVYNVSAEIMAMKEEQVHLEQEIKGEVKVLNNITNDLRLKDWEHSQTLRNITLIQGPPGPPGEKGDRGPTGESGPRGFPGPIGPPGLKGDRGAIGFPGSRGLPGYAGRPGNSGPKGQKGEKGSGNTLTPFTKVRLVGGSGPHEGRVEILHSGQWGTICDDRWEVRVGQVVCRSLGYPGVQAVHKAAHFGQGTGPIWLNEVFCFGRESSIEECKIRQWGTRACSHSEDAGVTCTL
partner: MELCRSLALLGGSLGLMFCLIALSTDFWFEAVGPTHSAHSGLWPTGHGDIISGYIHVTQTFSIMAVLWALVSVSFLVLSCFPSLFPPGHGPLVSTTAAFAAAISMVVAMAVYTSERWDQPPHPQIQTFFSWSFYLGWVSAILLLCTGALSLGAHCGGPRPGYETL
B7: 14-3-3 protein theta (Homo sapiens), P27348 (parent)
chain: MEKTELIQKAKLAEQAERYDDMATCMKAVTEQGAELSNEERNLLSVAYKNVVGGRRSAWRVISSIEQKTDTSDKKLQLIKDYREKVESELRSICTTVLELLDKYLIANATNPESKVFYLKMKGDYFRYLAEVACGDDRKQTIDNSQGAYQEAFDISKKEMQPTHPIRLGLALNFSVFYYEILNNPELACTLAKTAFDEAIAELDTLNEDSYKDSTLIMQLLRDNLTLWTSDSAGEECDAAEGAEN

Variants of B1 are the subject of one experiment. The conditions noted are these: with myome_human PDE4DIP.
Turning to V109D, the “effect of a mutation on the interaction” value is listed as “with no effect”.

Regarding A652T, the “effect of a mutation on the interaction” value is given as “with no effect”.

The next experiment covers variants of B2. The conditions noted are these: with sf01_human SF1, Q15637.
Regarding P122R, the “effect of a mutation on the interaction” value was “disrupting interaction strength”.

Variants of B3 are the subject of a further experiment. The conditions noted are these: with lats1_human LATS1, O95835.
In the case of L12H, the “effect of a mutation on the interaction” value is listed as “disrupting interaction strength”.

In a further experiment the parent is B4. To be noted: with goga2_human GOLGA2, Q08379.
As for A279V, the “effect of a mutation on the interaction” value is reported as “with no effect”.

Variants of B5 are the subject of another experiment. To be noted: with lats1_human LATS1, O95835.
Take S688L: the “effect of a mutation on the interaction” value was “with no effect”.

In the case of R8Q, the “effect of a mutation on the interaction” value is reported as “with no effect”.

The variants in a further experiment derive from B6. To be noted: with nkg7_human NKG7, Q16617.
As for P346L, the “effect of a mutation on the interaction” value was “with no effect”.

Take P275A: the “effect of a mutation on the interaction” value was “with no effect”.

V113A: the “effect of a mutation on the interaction” value is listed as “with no effect”.

The variants in a further experiment derive from B7. To be noted: with tri42_human TRIM42, Q8IWZ5.
Sequence of tri42_human TRIM42, Q8IWZ5 (Q8IWZ5 whole entry): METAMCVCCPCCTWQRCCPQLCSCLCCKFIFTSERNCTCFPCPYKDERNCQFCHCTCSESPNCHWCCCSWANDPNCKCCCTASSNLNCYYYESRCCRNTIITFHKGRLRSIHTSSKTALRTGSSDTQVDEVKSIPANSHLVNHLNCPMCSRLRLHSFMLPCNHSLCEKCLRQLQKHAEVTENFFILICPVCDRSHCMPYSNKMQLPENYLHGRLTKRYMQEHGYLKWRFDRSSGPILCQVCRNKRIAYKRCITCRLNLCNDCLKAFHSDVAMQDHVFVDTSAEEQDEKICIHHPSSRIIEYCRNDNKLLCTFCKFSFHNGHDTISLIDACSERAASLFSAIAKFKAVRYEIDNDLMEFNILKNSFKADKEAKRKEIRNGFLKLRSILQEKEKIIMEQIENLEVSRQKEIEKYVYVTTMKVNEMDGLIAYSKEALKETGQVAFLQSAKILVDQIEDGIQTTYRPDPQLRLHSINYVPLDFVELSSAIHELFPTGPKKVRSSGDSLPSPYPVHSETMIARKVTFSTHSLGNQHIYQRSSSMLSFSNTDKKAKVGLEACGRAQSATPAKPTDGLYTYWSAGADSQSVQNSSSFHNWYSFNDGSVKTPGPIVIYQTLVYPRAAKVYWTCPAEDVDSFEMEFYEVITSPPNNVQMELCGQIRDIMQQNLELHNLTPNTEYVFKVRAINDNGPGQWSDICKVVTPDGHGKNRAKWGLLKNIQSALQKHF
Turning to A152S, the “effect of a mutation on the interaction” value is recorded as “with no effect”.
